Source: patent US20140349340A1, “MBTH-LIKE PROTEINS IN THE PRODUCTION OF SEMI SYNTHETIC ANTIBIOTICS” (DSM SINOCHEM PHARMACEUTICALS NETHERLANDS B.V., priority 2012, published 2014)

B1: StaC_M2_A: purified adenylation domain of StaC module M2 (SEQ ID NO: 8); Streptomyces toyocaensis (protein, listed as Streptomyces toyocaensis)
chain: LPVGRLGVTSDATRTSEVERWNATGEAAGGASVVELFRRRSAGTPDAVAVVDGDRTLSYGDLDRESDRLAGRLAETGVRRGDHVGVVLERGADLFVAFLAVWKAGAAYVPVHVDYPPVRIERMLADAGVTVAVCAEGTRNAVPDGLEPVPVDAPWAGETRHETPTVTARDAAYVMYTSGSTGEPKGIVVPHGSVAALAGDPGWALDADDCVLMHASHAFDASLFEIWAPLVRGARVMVAEPGAVDTQRLREAVARGVTTVHLTAGSFRVLAEESPGSFDGLREILTGGDVVPLASVAQLRRACPDVRVRHLYGPTETTLCGTWHLLEPGDEPGDVLPIGRPLAGRRAYVLDAFLQPVAPNVTGELYLAGVGLALGYLGARGATSERFVADPFVPGERMYRTGDLARRNDRGELLFAGRADAQVKIRGYRVEPTEIETVLAEAPQVAQTVVVAREDGPGEKRLIAYAIAEPDQVLDPEALREHLAARLPEFMVPAAVVVLDDFPLTINGKIDREALPAPEFSAKPAGREPRTEAERVLC
B2: BpsB_M2_A: purified adenylation domain of BpsB module M2 (SEQ ID NO: 5); Amycolatopsis balhimycina (protein, listed as Amycolatopsis balhimycina)
chain: VGRLGVTSEPTRAAVVERWNSTGEAAAETSVLELFRRQAGASPDAVAVVAGERTLSYADLDRESDRLAGHLAGIGVGRGDRVGVVMTRGADLFVALLGVWKAGAAQVPVNVDYPAERIERMLADVGASVAVCVEATRKAVPDGVEPVVVDLPVIGGVRPEAPPVTVGAHDVAYVMYTSGSTGVPKAVAVPHGSVAALASDPGWSQGPGDCVLLHASHAFDASLVEIWVPLVSGARVLVAEPGTVDAERLREAVSRGVTTVHLTAGAFRAVAEESPDSFIGLREILTGGDAVPLASVVRMRQACPDVRVRQLYGPTEITLCATWLVLEPGAATGDVLPIGRPLAGRQAYVLDAFLQPVAPNVTGELYLAGAGLAHGYLGNTAATSERFVANPFSGGGRMYRTGDLARWTDQGELVFAGRADSQVKIRGYRVEPGEVEVALTEVPHVAQAVVVAREGQPGEKRLIAYVTAEAGSALESAAVRAHLATRLPEFMVPSVVVVLESFPLTLNGKIDRAALPAPEFAGKAAGREPRTEAERVLCG
B3: CepB_M2_A: purified adenylation domain of CepB (PCZA363.4) module M2 (SEQ ID NO: 4); Amycolatopsis orientalis (protein, listed as Amycolatopsis orientalis)
chain: LPVGRLGVTSEPARASVVERWNSTGEAANRTSVLELFRQQADASPDAVAVMDAARTLSYADLDRESDRLAGYLAAMGVRRGDRVGVVMERGTDLFVALLAVWKAGAAQVPVNVDYPAERIERMLADAGASVAVCLEATRKAVPDGVEPVVMDVPAIDGVRHEAPQVTVGAHDLAYVMYTSGSTGVPKGVAVPHGSVAALASDPGWSQGPDDCVLLHASHAFDASLVEIWVPLVNGSRVMVAEPGAVDAERLREAISRGVTTVHLTAGAFRAVAEESPDSFTGLREILTGGDAVPLASVVRMRRACPDVRVRQLYGPTEITLCATWHVIEPGAETGDTLPIGRPLAGRQAYVLDAFLQPVAPNVTGELYIAGAGLAHGYLGNNGSTSERFIANPFASGERMYRTGDLARWTDQGELLFAGRADSQVKIRGYRVEPGEIEVALTEVPHVAQAVVVAREDHPGDKRLIAYVTAEEGPALAADAVREHLAARMPEFMVPAVVLVLDSFPLTLNGKIDRAALPAPEFTGKAAGREPRTETERVLC
B4: TycA: control protein; first one-module-bearing peptide synthetase for synthesis of tyrocidine by Bacillus brevis, phenylalanine-specific adenylation domain (protein, UniProt P09095 1-1088, looked up)
Tyrocidine synthase 1: MLANQANLIDNKRELEQHALVPYAQGKSIHQLFEEQAEAFPDRVAIVFENRRLSYQELNRKANQLARALLEKGVQTDSIVGVMMEKSIENVIAILAVLKAGGAYVPIDIEYPRDRIQYILQDSQTKIVLTQKSVSQLVHDVGYSGEVVVLDEEQLDARETANLHQPSKPTDLAYVIYTSGTTGKPKGTMLEHKGIANLQSFFQNSFGVTEQDRIGLFASMSFDASVWEMFMALLSGASLYILSKQTIHDFAAFEHYLSENELTIITLPPTYLTHLTPERITSLRIMITAGSASSAPLVNKWKDKLRYINAYGPTETSICATIWEAPSNQLSVQSVPIGKPIQNTHIYIVNEDLQLLPTGSEGELCIGGVGLARGYWNRPDLTAEKFVDNPFVPGEKMYRTGDLAKWLTDGTIEFLGRIDHQVKIRGHRIELGEIESVLLAHEHITEAVVIAREDQHAGQYLCAYYISQQEATPAQLRDYAAQKLPAYMLPSYFVKLDKMPLTPNDKIDRKALPEPDLTANQSQAAYHPPRTETESILVSIWQNVLGIEKIGIRDNFYSLGGDSIQAIQVVARLHSYQLKLETKDLLNYPTIEQVALFVKSTTRKSDQGIIAGNVPLTPIQKWFFGKNFTNTGHWNQSSVLYRPEGFDPKVIQSVMDKIIEHHDALRMVYQHENGNVVQHNRGLGGQLYDFFSYNLTAQPDVQQAIEAETQRLHSSMNLQEGPLVKVALFQTLHGDHLFLAIHHLVVDGISWRILFEDLATGYAQALAGQAISLPEKTDSFQSWSQWLQEYANEADLLSEIPYWESLESQAKNVSLPKDYEVTDCKQKSVRNMRIRLHPEETEQLLKHANQAYQTEINDLLLAALGLAFAEWSKLAQIVIHLEGHGREDIIEQANVARTVGWFTSQYPVLLDLKQTAPLSDYIKLTKENMRKIPRKGIGYDILKHVTLPENRGSLSFRVQPEVTFNYLGQFDADMRTELFTRSPYSGGNTLGADGKNNLSPESEVYTALNITGLIEGGELVLTFSYSSEQYREESIQQLSQSYQKHLLAIIAHCTEKKEVERTPSDFSVKGLQMEEMDDIFELLANTLR

What was measured:
Assay type in all cases: biochemical
[1] = PPi release assay, adenylation activity with L-hydroxyphenylglycine; conditions: substrate L-hydroxyphenylglycine
From the text: (§1) These assays use inorganic pyrophosphatases to convert PPi produced during aminoacyl-AMP formation to orthophosphate (Pi). To measure Pi concentrations some of these assays use molybdate/malachite green reagent for colorimetric detection (McQuade et al. 2008) or, as used in the context of the present invention, a shift in absorbance maximum by conversion of 7-methyl-6-thioguanosine (MESG) by purine nucleoside phosphorylase (Ehmann D. E. et al. (Proc. Natl. Acad. Sci. (2000) 97, 2509-2514) or Daniel & Aldrich (Anal. Biochem. (2010) 404, 56-63)).
(§2) To determine the adenylation activity of the adenylation domains, the Enzchek® pyrophosphate assay kit (Life Technologies) was used as described by Ehmann D. E. et al. (Proc Nat Acad Science (2000) 97, 2509-2514) with small modifications. The reactions were performed 96 wells UV/Vis transparent plates (BD Falcon). The reaction mixture comprises 50 mM HEPES pH 8.0, 10 mM MgCl2, 5 mM ATP, 75 mM DTT, 0.03 U Inorganic Pyrophosphatase (IP), 1 U Purine Nucleoside Phosphorylase (PNP) and 0.2 mM MESG in a volume of 70 μl. Next 20 μl (around 0.5-2 μM final concentration) of purified A(T) domain, with or without co-purification of the MbtH like helper protein was added and the reaction was pre-incubated for 15 minutes at RT to reduce contaminating Pi. Following the pre-incubation, 10 μl of a 10 mM or 1 mM solution of the appropriate amino acid depending on the performed specificity determination was added to initiate the adenylation reaction and the absorbance at 360 nm was measured using a TECAN I Control spectrophotometer. Absorbance measurements were made every 5 to 10 min over a period of up to 240 min. A reaction with addition of 10 μl MilliQ water instead was used to determine and subtract the background absorbance. As substrates the following amino acids were used: D- or L-phenylalanine, D- or L-hydroxyphenylglycine, D- or L-phenylglycine, L-tryptophan, L-valine, L-cysteine, and L-leucine.

[2] = PPi release assay, adenylation activity with D-hydroxyphenylglycine; conditions: substrate D-hydroxyphenylglycine
From the text: as §1, §2

[3] = PPi release assay, adenylation activity with L-phenylalanine; conditions: substrate L-phenylalanine
From the text: as §1, §2

[4] = PPi release assay, adenylation activity with D-phenylalanine; conditions: substrate D-phenylalanine
From the text: as §1, §2

[5] = PPi release assay, adenylation activity with L-tryptophan; conditions: substrate L-tryptophan; protein alone; data not shown
From the text: as §1
(§3) To determine the adenylation activity of the adenylation domains, the Enzchek® pyrophosphate assay kit (Life Technologies) was used as described by Ehmann D. E. et al. (Proc Nat Acad Science (2000) 97, 2509-2514) with small modifications. The reactions were performed 96 wells UV/Vis transparent plates (BD Falcon). […] Following the pre-incubation, 10 μl of a 10 mM or 1 mM solution of the appropriate amino acid depending on the performed specificity determination was added to initiate the adenylation reaction and the absorbance at 360 nm was measured using a TECAN I Control spectrophotometer. Absorbance measurements were made every 5 to 10 min over a period of up to 240 min. A reaction with addition of 10 μl MilliQ water instead was used to determine and subtract the background absorbance. […]

[6] = PPi release assay, adenylation activity with L-valine; conditions: substrate L-valine; protein alone; data not shown
From the text: as §1, §3

[7] = PPi release assay, adenylation activity with L-leucine; conditions: substrate L-leucine; protein alone; data not shown
From the text: as §1, §3

[8] = PPi release assay, adenylation activity with L-cysteine; conditions: substrate L-cysteine; protein alone; data not shown
From the text: as §1, §3

[9] = co-purified with MbtH-like protein Tcp13
[10] = protein alone, without MbtH-like protein

Molecule	adenylation activity (absorption 360 nm, PPi release assay) [1, 9]	adenylation activity (absorption 360 nm, PPi release assay) [1, 10]	adenylation activity (absorption 360 nm, PPi release assay) [2, 9]	adenylation activity (absorption 360 nm, PPi release assay) [2, 10]	adenylation activity (absorption 360 nm, PPi release assay) [3, 9]	adenylation activity (absorption 360 nm, PPi release assay) [3, 10]	adenylation activity (absorption 360 nm, PPi release assay) [4, 9]	adenylation activity (absorption 360 nm, PPi release assay) [4, 10]	adenylation activity (PPi release assay) [5]	adenylation activity (PPi release assay) [6]	adenylation activity (PPi release assay) [7]	adenylation activity (PPi release assay) [8]
B1	clear adenylation activity	No adenylation activity	clear adenylation activity	No adenylation activity	no activity	No adenylation activity	no activity	No adenylation activity				
B2	clear adenylation activity	No adenylation activity	clear adenylation activity	No adenylation activity	no activity	No adenylation activity	no activity	No adenylation activity				
B3	clear adenylation activity	No adenylation activity	clear adenylation activity	No adenylation activity	no activity	No adenylation activity	no activity	No adenylation activity				
B4		no adenylation activity		no adenylation activity		accepted as substrate		accepted as substrate	similarly recognized and adenylated	similarly recognized and adenylated	similarly recognized and adenylated	no adenylation activity
